Here are results for one molecule from patent US20240342244A1, “Isthmin Protein Therapeutics for the Treatment of Non-Alcoholic Fatty Liver Disease” (The Board of Trustees of the Leland Stanford Junior …, priority 2021, published 2024).

Some results are limits rather than exact numbers.

One series deals with primary mouse adipocytes. Kind of series: 2-deoxy-3H-glucose uptake in primary mouse adipocytes. The format is cell-based. As to the method:
Mouse and human pre-adipocytes culture and differentiation. Inguinal fat pads from 4-8 week old C57BL/6J male and female mice were dissected and mechanically digested for 10 min using spring scissors. Digested tissues were incubated in WAT isolation buffer (10 ml PBS, 2.4 U/ml dispase II (#04942078001, Roche), 10 mg/ml collagenase D (#11088858001, Roche) at 37° C. for 45 min. 20 mL growth media was added and the tissue suspension was filtered through a 100-μm cell strainer and centrifuged at 600×g for 5 min. The cell pellets were resuspended in 20 mL growth media, filtered through a 40-μm cell strainer, centrifuged at 600×g for 5 min, resuspended in 10 mL growth media, and plated in 10-cm collagen-coated dishes. The cells were cultured in growth media (DMEM/F-12 Glutamax, Thermo Fisher Scientific #10565018) supplemented with 10% fetal bovine serum. Two days post-confluency, differentiation was induced with growth media containing 1 μM rosiglitazone, 0.5 mM isobutylmethylxanthine, 1 μM dexamethasone, 5 μg/mL insulin. After two days, cells were re-fed with growth media containing 1 μM rosiglitazone and 5 μg/mL insulin. Cells were fully differentiated after 6-8 days. For ISM1 knockdown or overexpression in primary adipocytes using adenovirus, 500 μL crude virus was mixed with 500 μL fresh growth media containing 1 μM rosiglitazone and 5 μg/mL insulin was added to each well at day 2 of differentiation. At day 4, virus-containing media was removed and 500 μL fresh growth media without stimulators was added to each well. SGBS cells were differentiated as described previously (Fischer-Posovszky et al., 2008; Wabitsch et al., 2001). Briefly, cells were cultured in growth media DMEM/F-12 Glutamax, supplemented with 10% fetal bovine serum, 33 uM biotin, and 17 uM pantothenate. Two days post confluency, differentiation was induced with serum-free DMEM/F12 media containing 33 uM biotin, 17 uM pantothenate, 0.01 mg/ml transferrin, 20 nM insulin, 100 nM cortisol, 0.2 nM triiodothyronine, 25 nM dexamethasone, 0.25 mM isobutyl methylxanthine, and 2 μM rosiglitazone. After four days, cells were re-fed with growth media containing 0.01 mg/ml transferrin 20 nM insulin, 100 nM cortisol, 0.2 nM triiodothyronine. Cells were fully differentiated after day 8-10.
(§1) Glucose uptake. Glucose uptake was performed as previously described (You et al., 2017). Briefly, 2-Deoxy-d-[2,6-3H]-glucose was purchased from PerkinElmer NEN radiochemicals. Fully differentiated adipocytes were washed with KRH buffer and starved in 0.5% BSA in KRH buffer for 4 h. Indicated concentrations of insulin or ISM1 were added at indicated time points. Cells were treated with a mixture of 500 μM 2-deoxy-D-glucose and 1.71 μCimL^−1 2-Deoxy-D-[1,2-3H (N)]-glucose for another 10 min followed by three washes using ice cold KRH buffer containing 200 mM glucose. The passive glucose uptake in the presence of 50 uM CytoB was less than 12% of the total glucose uptake. Cells were solubilized in 1% SDS and radioactivity was measured by liquid scintillation counting.

Series [1] relates to pAKT^S473. Kind of series: pAKT S473 western blot in primary mouse adipocytes. The format is cell-based. As to the method:
Mouse and human pre-adipocytes culture and differentiation. Inguinal fat pads from 4-8 week old C57BL/6J male and female mice were dissected and mechanically digested for 10 min using spring scissors. Digested tissues were incubated in WAT isolation buffer (10 ml PBS, 2.4 U/ml dispase II (#04942078001, Roche), 10 mg/ml collagenase D (#11088858001, Roche) at 37° C. for 45 min. 20 mL growth media was added and the tissue suspension was filtered through a 100-μm cell strainer and centrifuged at 600×g for 5 min. The cell pellets were resuspended in 20 mL growth media, filtered through a 40-μm cell strainer, centrifuged at 600×g for 5 min, resuspended in 10 mL growth media, and plated in 10-cm collagen-coated dishes. The cells were cultured in growth media (DMEM/F-12 Glutamax, Thermo Fisher Scientific #10565018) supplemented with 10% fetal bovine serum. Two days post-confluency, differentiation was induced with growth media containing 1 μM rosiglitazone, 0.5 mM isobutylmethylxanthine, 1 μM dexamethasone, 5 μg/mL insulin. After two days, cells were re-fed with growth media containing 1 μM rosiglitazone and 5 μg/mL insulin. […]
Western blots and molecular analyses. […] For Western blotting of plasma samples, 1 μl of plasma was prepared in 2× sample buffer (Invitrogen) with reducing agent, boiled, and analyzed using Western blot against indicated antibody. […]
For orientation: In western blotting, separated proteins are transferred to a membrane and probed.

Another series deals with SREBP1c, FAS, ACC. Description: Lipogenic protein and gene expression in AML12 hepatocytes. It is filed as cell-based, mouse. As to the method: Gene expression analysis. Total RNA from cultured cells or tissues was isolated using TRIzol (Thermo Fischer Scientific) and Rneasy mini kits (QIAGEN). RNA was reverse transcribed using the ABI high capacity cDNA synthesis kit. For qRT-PCR analysis, cDNA, primers and SYBR-green fluorescent dye (ABI) were used. Relative mRNA expression was determined by normalization with Cyclophilin levels using the ΔΔCt method.
(§2) Western blots and molecular analyses. For western blotting, homogenized tissues or whole-cell lysates, samples were lysed in RIPA buffer containing protease inhibitor cocktail (Roche) and phosphatase inhibitor cocktail (Roche). Cell lysates were centrifuged at 14,000×g for 15 min and supernatants were prepared in 4×LDS Sample Buffer (Invitrogen) and separated by SDS-PAGE and transferred to Immobilon 0.45 μm membranes (Millipore). For Western blotting of plasma samples, 1 μl of plasma was prepared in 2× sample buffer (Invitrogen) with reducing agent, boiled, and analyzed using Western blot against indicated antibody. Protein kinase array (R&D systems ARY003B) was performed according to the manufacturers' description. All antibodies used in this paper are described in STAR methods.

The test system of series [2] is differentiated 3T3-L1 adipocytes. Kind of series: 2-deoxy-3H-glucose uptake in differentiated 3T3-L1 adipocytes. It is filed as cell-based. As to conditions: 1 h. As to the method: as §1
Another series relates to ISM1-KO mice. Kind of series: In vivo 2-deoxy-3H-glucose uptake in ISM1-KO mice treated with ISM1 protein. The arrangement: species or system mouse. As to conditions: 5 mg/kg ISM1 protein for two days; male ISM1-KO mice. As to the method:
In vivo glucose uptake. Mice were fasted for 1 h and injected I.P. with 3H-2-deoxyglucose (3H-2-DOG) at 100 uCi/kg with or without 0.75 U/kg insulin in a total volume of 120 ul per mouse. After 30 min, mice were euthanized. Blood was collected by cardiac puncture and subsequently centrifuged to collect serum. Wet tissue weights were recorded then homogenized in 1% SDS for liquid scintillation counting. Data are expressed as CPM/mg wet weight (fold change over control).

A short description of series [3]: Pharmacokinetic measurement of ISM1 blood levels (anti-his ELISA, western blot). It is filed as in vivo, mouse. As to conditions: mice. As to the method: Pharmacokinetic measurements of ISM1 blood levels following ISM1 administration. An anti-his tag ELISA was performed to measure ISM1-his concentrations in blood. Recombinant ISM1 protein was administered at 10 mg/kg I.V. in a total volume of 100 ul. Blood was collected and centrifuged at 6000×g for 10 minutes at room temperature to collect serum. Blood levels were measured using the HisProbe-HRP Conjugate according to the manufacturer's instructions (Thermo #15165). Briefly, samples were prepared by diluting serum in coating buffer at 1:100 ratio and added to wells for overnight incubation at 4° C. Nonspecific binding was blocked by adding blocking buffer and incubating for 30 min at 37° C. The plate was washed three times with wash buffer. HisProbe-HRP (Thermo, #15165) working solution was added to each well. After 15 min incubation at room temperature, the plate was washed four times with wash buffer, followed by adding substrate (Thermo, #34022). After 10 min, 1N sulfuric acid was added to stop the reaction. Absorbance was measured at 450 nm.
(In general: In an ELISA, binding on a coated surface is turned into a signal by an enzyme label.)

Series [4] has as its system pAKT^S473. Kind of series: pAKT S473 western blot in C2C12 skeletal muscle cells. It is filed as cell-based. The settings on record: 100 nM, 5 min. As to the method:
as §2

The nature of series [5]: Observation of hypoglycemia in overexpression or pharmacological administration studies. It is filed as in vivo, mouse. As to conditions: overexpression or pharmacological administration of ISM1.

B1: ISM1: recombinant mouse ISM1 protein with a C-terminal myc-his tag generated in mammalian HEK 293 Expi cells (protein, UniProt A2ATD1 30-454, looked up)
Isthmin-1: SDRQDAAAGNNNLNLESDSTSETSFPLSKEAPEEHQVVHQPFPRQRFPPETGHPSLQRDGPRSFLLDLPNFPDLSKADINGQNPNIQVTIEVVDGPDSEAEKDQHPENKPSWSLPAPDWRAWWQRSLSLARTNSGDQDDKYDSTSDDSNFLSVPRGWDRPAPGHRTFETKEQPEYDSTDGEGDWSLWSVCSVTCGNGNQKRTRSCGYACIATESRTCDRPNCPGIEDTFRTAATEVSLLAGSEEFNATKLFEVDMDSCERWMSCKSEFLKKYMHKVINDLPSCPCSYPTEVAYSTADIFDRIKRKDFRWKDASGPKEKLEIYKPTARYCIRSMLSLESTTLAAQHCCYGDNMQLITRGKGAGTPNLISTEFSAELHYKVDVLPWIICKGDWSRYNEARPPNNGQKCTESPSDEDYIKQFQEAREY
modifications: C-terminal myc-His tag
notes: recombinant mouse ISM1 protein with a C-terminal myc-his tag generated in mammalian HEK 293 Expi cells
B1: the “glucose uptake when added to insulin” value with primary mouse adipocytes (100 nM ISM1 in cells treated with 50 nM insulin, 1 h) is given as “further increased insulin-induced uptake”. In addition, in the series with primary mouse adipocytes (100 nM, absence of insulin, across multiple experiments), the “increase in glucose uptake” value is “around 1.5 fold”. Further, the “desensitization of glucose uptake on prolonged treatment” value in the series on primary mouse adipocytes (24 h vs 4 h protein treatment, 100 nM) is given as “does not lead to desensitization”. For the same molecule, in the series with primary mouse adipocytes (primary mouse adipocytes), the “effect on glucose uptake relative to that of insulin” value was under 50%. Also, in the series with pAKT^S473 [1] (differentiated primary mouse brown adipocytes), the “pAKT^S473 induction” value is given as “induced pAKT^S473”. In the series on pAKT^S473 [1] (white adipocytes), the “pAKT^S473 induction” value is on record as “induced pAKT^S473”. Further, the “SREBP1c cleavage, FAS and ACC protein expression” value with SREBP1c, FAS, ACC (50 nM insulin, with or without ISM1, 24 h) was “counteracts the insulin-induced increase in SREBP1c cleavage to the mature form”. Further, the “ChREBPβ and PGC1β gene expression” value in the series on SREBP1c, FAS, ACC (AML12 hepatocytes) is “reduced”. Further, the “fas, acc and scd1 gene expression” value with SREBP1c, FAS, ACC (in the presence of insulin, 6 h) is listed as “significantly reduced”. The “induction of glucose uptake” value in series [2] is reported as “does not induce glucose uptake”. For the same molecule, in the series with ISM1-KO mice, the “glucose uptake in BAT” value is “increase glucose uptake”, the “glucose uptake in iWAT” value is given as “trending increase”, the “glucose uptake in liver” value is “no hepatic glucose uptake induction” and the “glucose uptake in skeletal muscle” value was “increase glucose uptake”. For the same molecule, the “half-life in the blood” value in series [3] (10 mg/kg I.V., serum, anti-his ELISA) was “approximately 70 minutes”. Moreover, the “protein integrity in plasma (western blot)” value in series [3] (after I.V. administration) is on record as “no observed protein degradation or cleavage”. For the same molecule, in the series on pAKT^S473 [4], the “pAKT^S473 induction” value is recorded as “induced pAKT^S473”. Further, the hypoglycemia entry in series [5] is reported as “do not observe hypoglycemia”.
